T1: human CAPRIN-1 protein having the amino acid sequence of SEQ ID NO: 2 (human, UniProt Q14444 1-709, limits assumed)
T1 construct: also called CAPRIN-1 proteins
T1 sequence: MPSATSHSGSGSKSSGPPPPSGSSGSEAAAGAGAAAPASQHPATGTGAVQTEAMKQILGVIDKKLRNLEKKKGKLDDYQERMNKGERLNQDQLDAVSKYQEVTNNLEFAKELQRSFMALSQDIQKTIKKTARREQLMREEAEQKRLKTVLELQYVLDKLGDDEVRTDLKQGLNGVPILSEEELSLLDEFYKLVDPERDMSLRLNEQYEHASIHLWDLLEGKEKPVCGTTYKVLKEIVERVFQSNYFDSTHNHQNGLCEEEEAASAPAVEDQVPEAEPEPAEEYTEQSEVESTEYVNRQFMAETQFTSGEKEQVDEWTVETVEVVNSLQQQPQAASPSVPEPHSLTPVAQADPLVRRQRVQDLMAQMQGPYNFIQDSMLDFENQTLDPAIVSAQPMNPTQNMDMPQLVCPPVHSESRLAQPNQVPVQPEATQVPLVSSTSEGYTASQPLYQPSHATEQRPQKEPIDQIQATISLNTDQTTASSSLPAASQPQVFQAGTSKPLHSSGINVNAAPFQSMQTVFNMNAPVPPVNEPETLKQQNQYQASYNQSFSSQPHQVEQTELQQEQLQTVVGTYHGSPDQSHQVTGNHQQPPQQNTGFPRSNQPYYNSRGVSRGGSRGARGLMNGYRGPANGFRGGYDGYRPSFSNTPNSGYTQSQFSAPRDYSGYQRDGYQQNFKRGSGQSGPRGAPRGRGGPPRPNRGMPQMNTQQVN

T2: partial CAPRIN-1 polypeptide consisting of the amino acid sequence of SEQ ID NO: 5 (human)
T2 construct: Synthetic peptide immobilized on ELISA plates
T2 peptide: ATQVPLVSSTSEGYTA

T3: CAPRIN-1 protein on the cell membrane surface of human cancer cell lines (human, UniProt Q14444 2-709)
T3 construct: whole, on cells; Endogenous CAPRIN-1 on human cancer cell lines (MDA-MB-231V, QG56, DLD-1, Capan-2 and others); The cells were not transfected; also called CAPRIN-1 on cancer cell surface
T3 sequence (looked up): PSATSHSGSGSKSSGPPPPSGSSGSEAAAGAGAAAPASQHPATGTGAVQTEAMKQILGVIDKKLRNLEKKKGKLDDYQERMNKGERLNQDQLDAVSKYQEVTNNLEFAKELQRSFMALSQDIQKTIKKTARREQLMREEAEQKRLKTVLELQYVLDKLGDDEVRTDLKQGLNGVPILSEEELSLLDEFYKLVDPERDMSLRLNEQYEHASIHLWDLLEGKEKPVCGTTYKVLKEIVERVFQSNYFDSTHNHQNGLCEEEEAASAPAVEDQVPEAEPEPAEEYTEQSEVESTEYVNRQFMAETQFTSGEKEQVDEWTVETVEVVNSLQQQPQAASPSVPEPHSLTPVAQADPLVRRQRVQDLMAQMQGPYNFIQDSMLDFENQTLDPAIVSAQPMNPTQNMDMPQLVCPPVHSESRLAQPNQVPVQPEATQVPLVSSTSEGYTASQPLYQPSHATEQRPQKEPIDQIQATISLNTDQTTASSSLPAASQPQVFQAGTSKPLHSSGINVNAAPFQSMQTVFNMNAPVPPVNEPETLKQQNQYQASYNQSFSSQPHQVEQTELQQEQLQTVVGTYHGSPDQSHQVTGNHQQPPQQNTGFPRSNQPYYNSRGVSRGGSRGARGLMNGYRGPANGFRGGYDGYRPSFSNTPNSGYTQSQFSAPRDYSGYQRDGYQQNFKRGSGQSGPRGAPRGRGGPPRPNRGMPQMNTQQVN


Experiments:
[1] = molecular target: T1, human CAPRIN-1 protein having the amino …; experiment: ELISA as in Example 9(3)
[2] = molecular target: T2, partial CAPRIN-1 polypeptide consisting …; experiment: peptide ELISA as in Example 9(3)
[3] = molecular target: T3, CAPRIN-1 protein on the cell membrane …; experiment: flow cytometry on human cancer cell lines as in Example 9(3)
[4] = molecular target: T2, partial CAPRIN-1 polypeptide consisting …; experiment: ELISA on immobilized peptides, antibody at 0.1 µg/mL
Method: Each peptide was dissolved at a concentration of 30 μg/ml in a 0.1 M sodium carbonate buffer solution (pH 9.6). […] The solution in each well was discarded, and 10 mM ethanolamine/0.1 M sodium carbonate buffer solution (PH 9.6) was added thereto at a concentration of 200 μL/well and left standing at room temperature for 1 hour. Then, the solution in each well was discarded, and each well was washed twice with PBS containing 0.5% Tween 20 (PBST) to prepare a peptide-immobilized plate. For verification, CAPRIN-1 proteins were immobilized on wells of this plate to prepare another plate according to the method described above. […] After shaking at room temperature for 1 hour, the solution in each well was discarded, and each well was washed three times with PBST. Next, a secondary antibody solution containing HRP-labeled anti-rabbit IgG antibodies diluted 3000- to 4000-fold with PBST was added thereto at a concentration of 50 μL/well. Then, the solution in each well was discarded, and each well was washed six times with PBST. A TMB substrate solution (manufactured by Thermo Fisher Scientific Inc.) was added thereto at a concentration of 100 μL/well and left standing for 15 to 30 minutes to cause color reaction. […] The absorbance was measured at 450 nm and 595 nm using an absorption spectrometer.

[5] = molecular target: T2, partial CAPRIN-1 polypeptide consisting …; experiment: ELISA as in Example 9(1), purified antibody

binding result [1]	binding result [2]	binding result [3]	binding result [4]	binding result [5]	Binder
binds	binds	binds			humanized anti-CAPRIN-1 antibody #2 (antibody, V domains shown, Human IgG1 heavy chain constant region and 'human IgG1 light chain constant region'; also called humanized rabbit anti-CAPRIN-1 monoclonal antibody #2; humanized anti-CAPRIN-1 monoclonal antibody #2) VH: EVQLVESGGGLVQPGGSLRLSCAASGFSFSGSYYMSWVRQAPGKGLEWIAYIYIGDGVTAYANWAKGRFTISKDNSKNTLYLQMNSLRAEDTAVYFCARGNKLWGPGTLVTVSS VL: DIQMTQSPSSLSASVGDRVTIKCQASQSISSYLAWYQQKPGKAPKRLIYDASNLDSGVPSRFSGSGSGTDFTFTISSLQPEDIATYYCQCTAVSSATIYGNAFGGGTKVEIK
binds	binds	binds			humanized anti-CAPRIN-1 antibody #3 (antibody, V domains shown, Human IgG1 heavy chain constant region and 'human IgG1 light chain constant region'; also called humanized rabbit anti-CAPRIN-1 monoclonal antibody #3; humanized anti-CAPRIN-1 monoclonal antibody #3) VH: EVQLVESGGGLVQPGGSLRLSCAASGFSFSGSYYMSWVRQAPGKGLEWIAYIYIGDGVTAYANWAKGRFTISRDNSKNTLYLQMNSLRAEDTAVYYCARGNKLWGPGTLVTVSS VL: DIQMTQSPSSLSASVGDRVTIKCQASQSISSYLAWYQQKPGKAPKRLIYDASNLDSGVPSRFSGSGSGTDFTFTISSLQPEDIATYYCQCTAVSSATIYGNAFGGGTKVEIK
binds	binds	binds			humanized anti-CAPRIN-1 antibody #1 (antibody, V domains shown, Human IgG1 heavy chain constant region and 'human IgG1 light chain constant region'; also called humanized rabbit anti-CAPRIN-1 monoclonal antibody #1; humanized anti-CAPRIN-1 monoclonal antibody #1) VH: QVQLVESGGGLVKPGGSLRLSCAASGFSFSGSYYMSWVRQAPGKGLEWIAYIYIGDGVTAYANWAKGRFTISRDNAKNSLYLQMNSLRAEDTAVYFCARGNRLWGQGTLVTVSS VL: DIQMTQSPSSLSAAVGDRVTIKCQASQSISSYLAWYQQKPGKPPKRLIYDASNLDSGVPSRFSGSGSGTDFTFTISSLQPEDIATYYCQCTAVSSATIYGNAFGGGTKVEIK
			binds		rabbit anti-CAPRIN-1 monoclonal antibody #1 (antibody, V domains shown, Rabbit hybridoma monoclonal antibody; also called rabbit anti-CAPRIN-1 antibody #1) VH: QSLEESGGDLVKPGASLTLTCTASGFSFSGSYYMSWVRQAPGKGLEWIAYIYIGDGVTAYANWAKGRFTISKASSTTVTLQMTSLTAADTATYFCARGNKLWGPGTLVTVSS VL: DVVMTQTPASVEAAVGGTVTIKCQASQSISSYLAWYQQKPGQPPKRLIYDASNLDSGVPSRFKGSGSGTDFTITISDLECADAATYYCQCTAVSSATIYGNAFGGGTEVVVK
				binds	human-rabbit chimeric anti-CAPRIN-1 antibody #1 (antibody, human IgG1, V domains shown, also called human-rabbit chimeric anti-CAPRIN-1 monoclonal antibody #1) VH: QSLEESGGDLVKPGASLTLTCTASGFSFSGSYYMSWVRQAPGKGLEWIAYIYIGDGVTAYANWAKGRFTISKASSTTVTLQMTSLTAADTATYFCARGNKLWGPGTLVTVSS VL: DVVMTQTPASVEAAVGGTVTIKCQASQSISSYLAWYQQKPGQPPKRLIYDASNLDSGVPSRFKGSGSGTDFTITISDLECADAATYYCQCTAVSSATIYGNAFGGGTEVVVK

From patent US20150050283A1 (TORAY INDUSTRIES, published 2015)
